Substrate: NC(=O)c1ccc[n+]([C@@H]2O[C@H](COP(=O)([O-])OP(=O)(O)OC[C@H]3O[C@@H](n4cnc5c(N)ncnc54)[C@H](O)[C@@H]3O)[C@@H](O)[C@H]2O)c1
Assay: purified protein
Details: NAD^+ binding (NB) domain; varied: cofactor

Row | Protein | K0.5 [µM]
1 | cUGDH (C. elegans UDP-glucose dehydrogenase) (Caenorhabditis elegans) (protein) MTDQVFGKVSKVVCVGAGYVGGPTCAMIAHKCPHITVTVVDMNTAKIAEWNSDKLPIYEPGLDEIVFAARGRNLFFSSDIPKAIAEADLIFISVNTPTKMYGRGKGMAPDLKYVESVSRTIAQYAGGPKIVVEKSTVPVKAAESIGCILREAQKNNENLKFQVLSNPEFLAEGTAMKDLANPDRVLIGGESSPEGLQAVAELVRIYENWVPRNRIITTNTWSSELSKLVANAFLAQRISSINSISAVCEATGAEISEVAHAVGYDTRIGSKFLQASVGFGGSCFQKDVLSLVYLCESLNLPQVADYWQGVININNWQRRRFADKIIAELFNTVTDKKIAIFGFAFKKNTGDTRESSAIHVIKHLMEEHAKLSVYDPKVQKSQMLNDLASVTSAQDVERLITVESDPYAAARGAHAIVVLTEWDEFVELNYSQIHNDMQHPAAIFDGRLILDQKALREIGFRTFAIGTSPDQAYNLFGTAGY | 333 ± 18
2 | hUGDH (human UDP-glucose dehydrogenase) (Homo sapiens) (protein) MFEIKKICCIGAGYVGGPTCSVIAHMCPEIRVTVVDVNESRINAWNSPTLPIYEPGLKEVVESCRGKNLFFSTNIDDAIKEADLVFISVNTPTKTYGMGKGRAADLKYIEACARRIVQNSNGYKIVTEKSTVPVRAAESIRRIFDANTKPNLNLQVLSNPEFLAEGTAIKDLKNPDRVLIGGDETPEGQRAVQALCAVYEHWVPREKILTTNTWSSELSKLAANAFLAQRISSINSISALCEATGADVEEVATAIGMDQRIGNKFLKASVGFGGSCFQKDVLNLVYLCEALNLPEVARYWQQVIDMNDYQRRRFASRIIDSLFNTVTDKKIAILGFAFKKDTGDTRESSSIYISKYLMDEGAHLHIYDPKVPREQIVVDLSHPGVSEDDQVSRLVTISKDPYEACDGAHAVVICTEWDMFKELDYERIHKKMLKPAFIFDGRRVLDGLHNELQTIGFQIETIGKKVSSKRIPYAPSGEIPKFSLQDPPNKKPKV | 1094 ± 244

— paper PMC6788056
